From the DeepSol protein solubility set

Assay: soluble on expression in E. coli; label from the status in PepcDB or PDB records

Row | Sequence | soluble on expression in E. coli
1 | MRIKPECALCITRQVVDVAKEITDDKSEQFKIIAWGIEKISEAYGESSVPSFMGTEIHRHIKKMSKNSDPYKNLKNVANEFALKYLNDVEKLLESDDELERLQNKVKLSIAGNVIDFGPYSTGVNIEKMVKDTLDGKLDVDFSKELLDELKNSKKVFYTCDNAGEIVFDLPLIKELKNYVEVVVSVKGSPILNDATLDDVKTAGIDKVTKVITSGTDAIGVRFEESSEEFINELNSSDFVIAKGMGNYESLTEYEEKHGQNSEKIPVYYILKAKCEPVAEHIGVSEGDNVLLRKEISKVLEHHHHHH | soluble
2 | TVVCDNGYGDLAATSALTTVIKDPISLTIKDIYEHGVKNPFTKIIHKLKKFIRYRKVLRWSRMWWVLLVREIVGDNTIEKKTEKALREIWDQCTIAVYNNTLNAVESKPLLFLHGILNECRNNFATKLRQDPSLIVAKIDQIIKSQIYRFWVSEPYLKIGRSHTLYTHITPDAVPQLPKECTLKHLSSYMEEKLKSMESKKNIESGKYEFDVDSSETDSTKDDGKPDDDDDDDDNFDDDDNFDDDTVEEEDASGDLFKNEKKDENKE | soluble
3 | MGSDKIHHHHHHMHFSKEHINALETRTRAHFINSLSGFKSANLIGTQDRQGNTNLSIVSSVIHLGANPPLMGMIIRPHSVPRHTFENIMQTGLYTINHVNQSIYEQAHQTSARYDKDESEFEATGLTPEYLSDFCAPFVKESRLKYSVKLVEHQHLAINGTEFVIGEIVDVYVDDNAVQTDGFIDLQAIDTVAISGLDCYYTGDKLARLPYAKK | not soluble
4 | MGSDKIHHHHHHMNQATRNVLWMTGIKKSFSGVPALWGVDFELKAGEIHALVGENGAGKSTLIKIMTGAYRRDSGVMEYDQKTVAFENPIQAQAAGIVAVYQEIQLVGLRTVAENIFLSREPNRFGIIDRRAMNARAADILKRLGLHIDPHSVVGSLNIAHRQMVAIARAISFGARVLILDEPTSSLTKTEVSVLFDVMRRLKSEGTSIVYISHRFEELYTVCDRVTVLRDGRNIVTRSLSMLTRLELVCFMLGRKPEEVSKRVTAFARQSQNMLGQPVLLQAEALKYKKRLNGVSIEVQHGEIVGLAGLLGSGRSETVRALFGAEPLEGGTVKLEGSLLSLRDPHDAIDAGIAFLSEDRKADGIIPELSVRENLTLAALPNLTQWGIVSKKRQSELALRFMERLDIKAASIEQKIRFYTNSGCNYDSSDRGSFLLYPLYAFRPSYRCSRRQRGGCTACGYPCGAREIYSLYN | not soluble
5 | MGSDKIHHHHHHMSQPPLPAVCTQAASALLPVAIDYPAALALRQMAMQHDDYPKYLLAPEVSALLHYVPDLHRRMLLATLWNTGARINEALALTRGDFSLAPPYPFVQLATLKQRAEKAARTAGRMPSGSQPHRLVPLSDNQYVSELQMMVATLKIPLERRNRRTGRTEKARLWEITDRTVRTWIGEAVEAAAADDVTFSVPVTPHTFRHSYAMHMLYAGIPLKVLQALMGHKSVSSTEVYTKVFALDVAARHRVQFQMPGADAVAMLKGGS | not soluble
6 | MSLRTTIADVAQAAGVSVSTVSRALRGLDRVSPETRERIEQEAKRLHFSFSKSASSLASGKTMRVAVLLPNEISSWFNAHAFEGIYEVMSKAGYDIVPYIVWTQDDLDAFFQNLPGNRNVDAVIEASFDFDEAKKQVLGNLTIPVVGMNAPSTHGLDAGVAIDDEASMATIVRFLKSLGHKTLAYIEQPINTTPFVCSDRLRKKGFSEASQACGYADEDIIVMPSLSHIDARSEQDIYSGIVAQLLSAPKQPTAICVSVDAVAAPLLKELRRMGWRVPQDVSLVGFDDDDTATALDLTTMHQDPAEIGRIAARKTLALLNGETLDEPFTVMPTSLVLRGTTERVSEGHHHHHH | soluble
7 | MAHHHHHHMEHVRHLLDVIMGRATLDPGVARVVSVFFNQKSSGFSPQELMQFLVTCAFHVKGMTPLEAARFCFFALRRDMEHAIARDDVIFMLEHSLIEHTIEMPEMELRRRVVDIFGDTTYVIFDDFVRYFIHNYAMWYAFGVPVTVSGERSGRGGDVAPQLNPTLTLLKADGEPNAKARAPTAATTVSTSGAAPVSASTSTTAATPAAAITTATTQKTVPHDESVWRTFIARVQHSNKAFSVTAHVNDTIFDVMVMVQNSTGIRAACQEWRAGNVALDPKCRLGSTELGLGGNEVAAPEVIIIARDEAVRLVMVYKEKGFRWEVRLPSSEKVLKLRALVQHKTMIPLTRCVLRAHGSCLMDRHPLAHYNLQDGDVVTITQE | not soluble
8 | MTDDKKIRAAIVGYGNIGRYALQALREAPDFEIAGIVRRNPAEVPFELQPFRVVSDIEQLESVDVALVCSPSREVERTALEILKKGICTADSFDIHDGILALRRSLGDAAGKSGAAAVIASGWDPGSDSVVRTLMQAIVPKGITYTNFGPGMSMGHTVAVKAIDGVKAALSMTIPLGTGVHRRMVYVELLPGHNLEEVSAAIKADEYFVHDETHVIQVDEVDALIDMGHGVRMVRKGVSGSTQNQRMSFDMEINNPALTGQVLVCAARAAMRQQPGAYTLQEIPVIDLLPGDREQWIGKLC | soluble
9 | AHHHHHHGSNFQQEILIIKSEIYPIVSKHYPKNTRREVISLYDLITFAILAHLHFNGVYKHAYRVLIEEMKLFPKIRYNKLTERLNRHEKLLLLAQEELFKKHAREYVRILDSKPIQTKELARKNRKDKEGSSEIISEKPAVGFVPSKKSFTMGTS | not soluble
10 | MAQIVRQSKFRHVFCKPVKHESCMSDIRVTEITWDSLFCDVNPKFIAFINRGAGGPFMVIPVNKIGRVDKDYPFVDAHKAPCLEVAWSPFNDNVIASCSEDTTCKVWVIPDRGLNRNLSEPAVELTGHQKRVNTIAWHPVANNVLLTAGGENVMFMWNVGTGEALLEISGHPDQIWSINFNFDGSQFVTTCKDKKIRILDSHTGEVVHEGMGHEGVKPQRAIFVKDGLILSTGFTKRSERLYALRAPEDLSTPIVEEELDTSNGVVFPFYDEDSGLVYLVGKGDCAIRYYEVNNDAPYVHYINTYTTNEPQRAVGFQSKRGMSSEENEINRIYKLTTKGVVDILQFFVPRKSDLFQHDLYPDTRSTIPALTAEEFMEGKNAAPNRQPVNAAAAAAAAKPKVQVAKKANILSTLAPTAAESVPTQSYSERPPSSQQPSPRPSASPRPRPVVDDDMGIVTMREAPPSRPASSRASRTEIPPKEESKVDPMKPKQAVQLKSRAARDEPGGGAQTAGQRRAAAELERIKRDQSRTADEDNTLAPPPSSSRASASPRGSVSAASDHVPQNMDELLEDLMKMKAVLRQHERRIRMLEEEIADRNMSNAYSF | not soluble
11 | MGSDKIHHHHHHMSDVIEQYFVKNEPYYRPVADEVKLYEAAYSVRMPMMLKGPTGCGKTRFVEYMAWKLGKPLITVACNEDMTASDLVGRFLLDAQGTRWQDGPLTTAARYGAICYLDEVVEARQDTTVVIHPLTDNRRVLPLEKKGELVGAHPDFQLVISYNPGYQSLMKDLKQSTKQRFGALDFNYPQHDIETEIVSHETGIDSAIADKLVSIAERARNLKGHGLDEGISTRMLIYAGNLIAKGVDVHAACRMALVRPITDDPDMRDALDAAVTTFF | not soluble
12 | MGSDKIHHHHHHMVKYMKIVGITDLHGKLPPAVREFKDFADVLVVCGDITHFGKGIEVIEKLAELSDYMEVLCVPGNCDTKEVIDELNSFKLNIDRKVKKIENINFVGIGGSNKTPFNTPNEYTEEEIYNKLINVVKNLKNIFLVSHAPPYNTMADIVDLDKDIHVGSKSIRKIIEDFNENIRFCACGHIHESRCIDKIGNTIVVNPSPKSYFVYDTKKNMVVLDDFNGF | not soluble
13 | MADDRGVFPGQWALSGGGVESGERIEEALRREIREELGEQLLLTEITPWTFSDDIRTKTYADGRKEEIYMIYLIFDCVSANREVKINEEFQDYAWVKPEDLVHYDLNVATRKTLRLKGLL | not soluble
14 | GSPGIHMLGGSSDAGLATAAARGQVETVRQLLEAGADPNALNRFGRRPIQVMMMGSAQVAELLLLHGAEPNCADPATLTRPVHDAAREGFLDTLVVLHRAGARLDVCDAWGRLPVDLAEEQGHRDIARYLHAATGD | soluble
15 | MSLLPRTTSVKPGEKFDVIIVGLGPAAYGAALYSARYMLKTLVIGETPGGQLTEAGIVDDYLGLIEIQASDMIKVFNKHIEKYEVPVLLDIVEKIENRGDEFVVKTKRKGEFKADSVILGIGVKRRKLGVPGEQEFAGRGISYCSVADAPLFKNRVVAVIGGGDSALEGAEILSSYSTKVYLIHRRDTFKAQPIYVETVKKKPNVEFVLNSVVKEIKGDKVVKQVVVENLKTGEIKELNVNGVFIEIGFDPPTDFAKSNGIETDTNGYIKVDEWMRTSVPGVFAAGDCTSAWLGFRQVITAVAQGAVAATSAYRYVTEKKGKK | soluble
16 | MSLYELQKVIKMDTETEDVPMFTVQNLPREDIYKTIGEMAIIVPMKNEKLHLVDGVLKAIPHKSPIIIVSNSKRKGPNRFKQEVDLVKHFCNLTHSKVIMIHQRDPGLAEAFRETGYEDILDEKGLVRSGKGEGMLIGIMLAKAIGAKYVGFVDADNYIPGAVNEYVKDYAAGFLMSESEYAMVRLHWRHKPKVSRGTLYFKKWGRVSEITNRYLNQLISEKTAFETTIMVTGNAGEHAMTMKLAEILPFSTGYSIEPYEIVYLLERFGSWENVEEFQDVFDQGIEIFQIETLNPHFHEDKGQEHVKEMVLLSLTTIYHSKLASERLKRQILEDLRMHGIIKEDEEPPKPRVMRPIKDIDIKKWMKTLESNQETLLRFDLEGHHHHHH | not soluble
17 | GSPEFPPTIQEIKQKIDSYNSREKHCLGMKLSEDGTYTGFIKVHLKLRRPVTVPAGIRPQSIYDAIKEVNPAATTDKRTSFYLPLDAIKQMHISSTTTVSEVIQGLLDKFMVVDNPQKFALFKRIHKDGQVLFQKLSIADYPLYLRLLAGPDTDVLSFVLKEN | soluble
18 | MGSDKIHHHHHHMAFNLDALASVVVDDSIKGIPFGARLGIADIANQGWNVLAGDLPLPAAIIRADALAHNSRWMQRFVSERGALIAPHVKTTMCPQIIARQIADGAWGVTVATVQQMRVCRNFGADRIILANQAVGRSELDAITAMVKEPDLDFMMIVDSAVGIEAAAEAVRRNRLDRPLQLLLERGYPGGRTGCRTNDIALALARQIRATPELRLVGIEAFEGLIQTENGSPEQAVGLFMDEIAALFGLCADDGLFESDAPLVTAGGSSHYDIVIDRLAHCTARVVTRSGCYVTHDSGLYRIAHQRLQAKIGEQDGLRRALEIWTYVQSIPEPGLALLTAGRRDCGTDSGFPVPLLLSSAGAYPRDLPPGCEVINLNDQHAYMRFPPDLPLAVGDRVGLGISHPCTTFDKWQIIYLVDSDYRVIEAMKTFF | not soluble
19 | MAQNPNSFTDSVFGMIRNLLVSIRAGLFELTIKQPVTQNSLQRYQEEHREEKQQYLRQAILDLAEDSEEEDDGQPLDKETLSKMIAELTIERNNLRRSFNIVNEQRTGSKDRQHMEEEIRIQNWTKEDREELESGLAVMRQTIQESWKDAADCEQEKRSKNNQ | not soluble
20 | MLTNEQLAALRSRLLDMKRETEDRLKQNDHFGMIRSHAHDAVGELASYDNHPADEATELYEREKDLALKEHAERELREIERALGAIADGTYGTCRVCGRPIPYERLEALPTTLYCREHSPDQTVSQKRPLEEGVLMPPFGKFDFDDRAESVAYDAEDAWQEVARYGTSDTPSDLGKNVDSYSEVYAESEENVGYVEDLENFAAVDLHGQHVRVYPTREHELLENILDDEGIMSNIGDLPAYEKDPYTSKDSYRRYDERPSQQHFGETTP | not soluble
21 | MGHHHHHHSHMFLVLKKKHICHRNLVNILQLNMYVCCLDKCNHCKHLYDLGFCFYFEMGAFLFTSSLKTKNCFCKEMRFFLNNKKCLADSLLNKNLPNFLIDYFKPFVTWYSFASQFRFRVITFPLFLRKMKKVILLSEGERHSFIFFFFFFFFL | not soluble
